Measured values reported in the supplement of paper PMC11246515.
± gives the standard deviation of the averaged measurements.

Experiment: total protein half-life in vivo (active degradation + dilution); higher = more stable protein
[1] = E. coli NCM3722 delta-clpP delta-lon delta-hslV, growth: N-lim chemostat, doubling time 6 h
[2] = E. coli NCM3722 delta-clpP, growth: N-lim chemostat, doubling time 6 h
[3] = E. coli NCM3722 delta-hslV, growth: N-lim chemostat, doubling time 6 h
[4] = E. coli NCM3722 delta-lon, growth: N-lim chemostat, doubling time 6 h
[5] = E. coli NCM3722 delta-smpB, growth: N-lim chemostat, doubling time 6 h
[6] = wild type E. coli NCM3722, growth: C-lim chemostat, doubling time 3 h
[7] = wild type E. coli NCM3722, growth: C-lim chemostat, doubling time 6 h
[8] = wild type E. coli NCM3722, growth: C-lim chemostat, doubling time 12 h
[9] = wild type E. coli NCM3722, growth: N-lim chemostat, doubling time 6 h
[10] = wild type E. coli NCM3722, growth: N-lim chemostat, doubling time 12 h
[11] = wild type E. coli NCM3722, growth: P-lim chemostat, doubling time 6 h
[12] = wild type E. coli NCM3722, growth: P-lim chemostat, doubling time 12 h

Sequence | total protein half-life in vivo [1] | total protein half-life in vivo [2] | total protein half-life in vivo [3] | total protein half-life in vivo [4] | total protein half-life in vivo [5] | total protein half-life in vivo [6] | total protein half-life in vivo [7] | total protein half-life in vivo [8] | total protein half-life in vivo [9] | total protein half-life in vivo [10] | total protein half-life in vivo [11] | total protein half-life in vivo [12]
MKLQKQLLEAVEHKQLRPLDVQFALTVAGDEHPAVTLAAALLSHDAGEGHVCLPLSRLENNEASHPLLATCVSEIGELQNWEECLLASQAVSRGDEPTPMILCGDRLYLNRMWCNERTVARFFNEVNHAIEVDEALLAQTLDKLFPVSDEINWQKVAAAVALTRRISVISGGPGTGKTTTVAKLLAALIQMADGERCRIRLAAPTGKAAARLTESLGKALRQLPLTDEQKKRIPEDASTLHRLLGAQPGSQRLRHHAGNPLHLDVLVVDEASMIDLPMMSRLIDALPDHARVIFLGDRDQLASVEAGAVLGDICAYANAGFTAERARQLSRLTGTHVPAGTGTEAASLRDSLCLLQKSYRFGSDSGIGQLAAAINRGDKTAVKTVFQQDFTDIEKRLLQSGEDYIAMLEEALAGYGRYLDLLQARAEPDLIIQAFNEYQLLCALREGPFGVAGLNERIEQFMQQKRKIHRHPHSRWYEGRPVMIARNDSALGLFNGDIGIALDRGQGTRVWFAMPDGNIKSVQPSRLPEHETTWAMTVHKSQGSEFDHAALILPSQRTPVVTRELVYTAVTRARRRLSLYADERILSAAIATRTERRSGLAALFSSRE | 4.81 ± 0.19 h | 4.01 ± 1.1 h | 2.9 ± 0.19 h | 3.33 ± 0.44 h | 2.739 ± 0.015 h | 2.89 ± 0.43 h | 4.39 ± 0.1 h | 6.98 ± 0.28 h | 2.97 ± 0.079 h | 4.37 ± 0.29 h | 4.36 ± 0.065 h | 7.54 ± 0.6 h
MMLSATQPLSEKLPAHGCRHVAIIMDGNGRWAKKQGKIRAFGHKAGAKSVRRAVSFAANNGIEALTLYAFSSENWNRPAQEVSALMELFVWALDSEVKSLHRHNVRLRIIGDTSRFNSRLQERIRKSEALTAGNTGLTLNIAANYGGRWDIVQGVRQLAEKVQQGNLQPDQIDEEMLNQHVCMHELAPVDLVIRTGGEHRISNFLLWQIAYAELYFTDVLWPDFDEQDFEGALNAFANRERRFGGTEPGDETA | 4.31 ± 0.33 h | 4.73 ± 0.53 h | 2.9 ± 0.15 h | 3.15 ± 0.76 h | 3.01 ± 0.68 h | 2.21 ± 0.11 h | 3.73 ± 0.41 h | 5.97 h | 3.18 ± 0.091 h | 6.55 h | 3.94 ± 0.13 h | 5.49 ± 2.1 h
MLKTISPLISPELLKVLAEMGHGDEIIFSDAHFPAHSMGPQVIRADGLLVSDLLQAIIPLFELDSYAPPLVMMAAVEGDTLDPEVERRYRNALSLQAPCPDIIRINRFAFYERAQKAFAIVITGERAKYGNILLKKGVTP [P0AEN8] | 6.09 ± 0.27 h | 6.25 ± 0.67 h | 6.67 ± 1.6 h |  | 5.51 ± 0.094 h | 3.05 ± 0.092 h | 6.7 ± 0.48 h | 13.2 ± 0.83 h | 5.36 ± 0.38 h | 10.4 ± 1.1 h | 5.89 ± 0.63 h | 12.3 ± 0.71 h
MSEKHPGPLVVEGKLTDAERMKHESNYLRGTIAEDLNDGLTGGFKGDNFLLIRFHGMYQQDDRDIRAERAEQKLEPRHAMLLRCRLPGGVITTKQWQAIDKFAGENTIYGSIRLTNRQTFQFHGILKKNVKPVHQMLHSVGLDALATANDMNRNVLCTSNPYESQLHAEAYEWAKKISEHLLPRTRAYAEIWLDQEKVATTDEEPILGQTYLPRKFKTTVVIPPQNDIDLHANDMNFVAIAENGKLVGFNLLVGGGLSIEHGNKKTYARTASEFGYLPLEHTLAVAEAVVTTQRDWGNRTDRKNAKTKYTLERVGVETFKAEVERRAGIKFEPIRPYEFTGRGDRIGWVKGIDDNWHLTLFIENGRILDYPARPLKTGLLEIAKIHKGDFRITANQNLIIAGVPESEKAKIEKIAKESGLMNAVTPQRENSMACVSFPTCPLAMAEAERFLPSFIDNIDNLMAKHGVSDEHIVMRVTGCPNGCGRAMLAEVGLVGKAPGRYNLHLGGNRIGTRIPRMYKENITEPEILASLDELIGRWAKEREAGEGFGDFTVRAGIIRPVLDPARDLWD | 4.99 ± 0.69 h | 3.79 ± 0.29 h | 2.52 ± 0.056 h | 3.07 ± 0.14 h | 2.55 ± 0.1 h | 2.55 ± 0.13 h | 4.1634 ± 0.0008 h | 5.98 ± 0.51 h | 2.82 ± 0.28 h | 3.73 ± 0.062 h | 3.91 ± 0.24 h | 6.82 ± 0.1 h
